Tests used:
[1] = substrate: NC(=O)C1=CN([C@@H]2O[C@H](COP(=O)(O)OP(=O)(O)OC[C@H]3O[C@@H](n4cnc5c(N)ncnc54)[C@H](O)[C@@H]3O)[C@@H](O)[C@H]2O)C=CC1; assay: cells, lysate or membranes; format: biochemical, Saccharomyces cerevisiae; details: 10 mM 2,5-hexanedione as co-substrate, sodium phosphate pH 7.0, 30 °C, cofactor varied 0.1-4 mM, enzyme enriched from E. coli extract, not homogeneous
[2] = substrate: NC(=O)C1=CN([C@@H]2O[C@H](COP(=O)(O)OP(=O)(O)OC[C@H]3O[C@@H](n4cnc5c(N)ncnc54)[C@H](OP(=O)(O)O)[C@@H]3O)[C@@H](O)[C@H]2O)C=CC1; assay: cells, lysate or membranes; format: biochemical, Saccharomyces cerevisiae; details: 10 mM 2,5-hexanedione as co-substrate, sodium phosphate pH 7.0, 30 °C, cofactor varied 0.1-4 mM, enzyme enriched from E. coli extract, not homogeneous

| Protein | Km [1] | Vmax [1] | Km [2] | Vmax [2] |
| --- | --- | --- | --- | --- |
| Gre2p (Saccharomyces cerevisiae S288C) (protein, GRE2 subcloned from p423-GPD-YOL151w into pRSET B, expressed in E. coli BL21(DE3) pLysS) MSVFVSGANGFIAQHIVDLLLKEDYKVIGSARSQEKAENLTEAFGNNPKFSMEVVPDISKLDAFDHVFQKHGKDIKIVLHTASPFCFDITDSERDLLIPAVNGVKGILHSIKKYAADSVERVVLTSSYAAVFDMAKENDKSLTFNEESWNPATWESCQSDPVNAYCGSKKFAEKAAWEFLEENRDSVKFELTAVNPVYVFGPQMFDKDVKKHLNTSCELVNSLMHLSPEDKIPELFGGYIDVRDVAKAHLVAFQKRETIGQRLIVSEARFTMQDVLDILNEDFPVLKGNIPVGKPGSGATHNTLGATLDNKKSKKLLGFKFRNLKETIDDTASQILKFEGRI | 1450 µM | 0.081 µmol/min/mg | 38 µM | 0.288 µmol/min/mg |
| Gre2p (Saccharomyces cerevisiae S288C; N9E) (protein, GRE2 subcloned from p423-GPD-YOL151w into pRSET B, expressed in E. coli BL21(DE3) pLysS) MSVFVSGAEGFIAQHIVDLLLKEDYKVIGSARSQEKAENLTEAFGNNPKFSMEVVPDISKLDAFDHVFQKHGKDIKIVLHTASPFCFDITDSERDLLIPAVNGVKGILHSIKKYAADSVERVVLTSSYAAVFDMAKENDKSLTFNEESWNPATWESCQSDPVNAYCGSKKFAEKAAWEFLEENRDSVKFELTAVNPVYVFGPQMFDKDVKKHLNTSCELVNSLMHLSPEDKIPELFGGYIDVRDVAKAHLVAFQKRETIGQRLIVSEARFTMQDVLDILNEDFPVLKGNIPVGKPGSGATHNTLGATLDNKKSKKLLGFKFRNLKETIDDTASQILKFEGRI | 960 µM | 0.147 µmol/min/mg | 1520 µM | 0.272 µmol/min/mg |

— publication PMC2871135, “Engineering Cofactor Preference of Ketone Reducing Biocatalysts: A Mutagenesis Study on a γ-Diketone Reductase from the Yeast Saccharomyces cerevisiae Serving as an Example” (International Journal of Molecular Sciences, 2010)
